Measurements as given in article PMC9468479.

Tests used:
[1] = target: SARS-CoV-2 wild-type Wuhan-Hu-1 spike protein (2019-nCoV spike protein) (SARS-CoV-2 (Wuhan-Hu-1)) (UniProt P0DTC2); test: SPR
[2] = target: Wuhan-Hu-1 SARS-CoV-2 receptor binding domain (2019-nCoV spike RBD) (SARS-CoV-2 (Wuhan-Hu-1)) (UniProt P0DTC2); test: SPR

Substance: Urtica dioica agglutinin (UDA) (natural protein)
- Kd [1]: 7 nM
- Kd [2]: 22 nM
